Assay: yeast display, Sf9 membrane polyspecificity reagent, FACS + sequencing; frameworks hold sequencing errors
Outline: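 Using colony PCR, genes from sorted yeast display clones were amplified, then sequenced on MiSeq at 2 × 250 and filtered by CDR length. The clones had been stained with 10% biotinylated, detergent-solubilized Sf9 membrane reagent for 1 hour at 4 °C and sorted by FACS into low and high (top ~1%) gates on anti-HA and streptavidin fluorescence. Polyreactivity labels come from the gate of origin.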

Row | Sequence | polyreactivity (PSR sort gate)
1 | QEQLVESGGGLVQAGGSLRISCAASGFIFGFYAMGWYRQAPGKERELVAAISWSAGSTYFADSVMGRFTISRDNAKNTVYLQMYSLKPEDTAVYYCAAYFDFRDDAVTYDYWGQGTQVTVSS | low polyreactivity
2 | QVHLVESGGGLVQAGGSLRLSCAASGSTFFLYAMGWYRQAPGKERELVAAISSGGSTYYADSVKGRFTISRDNAKNTVYLQMTRLKPEDTAVYYCARDRIDTTDRTWRGDYWGQGTQATVSS | low polyreactivity
3 | QVQLVESGGGLVQAGGSLRLSCAASGSIFYPYAMGWYRQAPGKERELVAVINDTGSTYYADSVKGRFTISRDNAKNTVYLQMNSLKPEETAVYYCNTATYVDSFPDPGDHWGQGTQVTVSS | low polyreactivity
4 | QVQLVESGGGLVQAGGSLRLSCAASGSIFQGYAMGWYRQAPGKERELVAGITSSGGSTHYADSVKGRFTISRDNAKNTVYLQMNSLKPEDTAVYDYWGQGTQVTVSS | low polyreactivity
5 | QVQLVESAAGLVQAGGSLRLSCAASGFTFSFYTMGWYRQAPAKDRELVAAISSGGTPYYADSVKGRFTISRDNAKNTVYLQMNSLKPEDTAVYYCAAYGRYASWIEFYSNYDYWGQGTQVTVSS | low polyreactivity
6 | QVQLVESVGGLVQAGGSLRLSCAASGSTFRINAMGWYRQAPGKEMELVADINSGGNTTYADSVKGRFTISRDNAKNTVYLQMNSLKPEDTAVYYCAAEPVFDLWEFLLDYGYDYWGQGTQVTLSS | low polyreactivity
7 | QVQLVESGGGLVQAGGSLRLTCAASGFNFWDYAMGWYRQAPGKERELFAAISDSGGDTYYADSVKGRFTISRDNAKNTVYLQMNSLKPEDTAVYYCASDVELWVFRGQQYDYWGQGTQVTVSS | low polyreactivity
8 | QVQLVESGGGLVQAGGSLRLSCAASGFTIRYYALGWYRQAPGKERELVAAISRGGSTTYADSVKGRFTISRDNAKNTVYLQMNSLKPEDTAVDYCAVYSKWSVTYDYWGQGTQVTVSS | high polyreactivity
9 | QVQLVESGGGLVQAGGSLRLSCAASGSTFVGYAMGWYRQAPGKERELDAALSANVGGTYYADSVKGRFTISRDNAKNTVYLQMNSLKPEVTAVYYCAADYAYNYFWRPGDYWGQGTQVTVSS | low polyreactivity
10 | QVQLQESGGGLCRRAAASSGAASGTISYLNYMGWYRQAPGKEREFVAGINNGTTTNYADSVKGRFTISRDNAKNTVYLQMNSLKLEDTAVYYCAVDPYYTFYFWYWGQGTQLTVSS | high polyreactivity
11 | QVQLVESGGGLVQAGGSLRLSCAASGNTLHRYVMGWYRPAPGKERELVAVITRGTSTYYADSVKGRFTISRDNAKNTVYLQMNSLKPEDTAVYYCAARYTFPYSRYDYWGQGTQVTVSS | low polyreactivity
12 | QVQLVESGGGLVQAGGSLRLSCAASGSTFYGYAMGWYRQAPGKERELVAAISSSGTRTYYADSVKGRFTISRDNAKNTVYLQMNSLKPEDTAVYYCNAYYYIPFEGRGYSKMDYWGQGTQVTVSS | high polyreactivity
13 | QVQLVESGGGLVQAGGSLRLSCAASGSTLDGNAMGWYRQAPGKERELVAAISVSGGSTYYADSVKGRFTISRDNAKNTVYLQMNSLKPEDPAVYYCSTEWRPRYYGTEPFDSWGQGTQVTVSS | high polyreactivity
14 | QVQLVESGGGLVQAGGSLRLSCAASGSTFTIYAMGWYRQATGKERELVATIRAGGGRTSYADSVKGRFTISRDNAKNTVYLQMNSLKPEDTAVYYCAVYVRPTRYGYWGQGTQVTVSS | high polyreactivity
15 | QVQLVESGGGLVQAGCSVRLSCAATGSSFVDNAMGWYRQAPGKERELVAANDGSADSTYYADSVKGRFTISRDNAKNTVYLQLNSLKPEATAVYYCAAVDYWTKFDYWGQGTQVTVSS | low polyreactivity
16 | QVQLVESGGGLVQAGGSLRLSCAASGRIFGINAMGWYRQAPGKERELVAAITSGVSTNYADSVKGRFTISRDNAKNTVYLQMNSLKPEDTAVYYCATRRNRSYDYWGQGTQVTVSS | low polyreactivity
17 | QVQLVESGGGLVQAGGSLRLSCAASGRTFPAYTMGWYRQAPGKERELVAAISRVGTTYYADSVKGRFTISRDNAKNTGYIQMNSLKPEDTAFYYCNARTWSWSFDYWGQGTLVTVSS | high polyreactivity
18 | QVQLVESGGGLVQAGGSLRLSCAASGSTFRRNTMGWYREAPGKEREFVAALSRRGGSTYYADSVKGRFTISRDNAKNTVYFQMNRLKPEDTGVYYCAAPGLSRLYNVYYWPYDYWGQGTQVTVSS | high polyreactivity
19 | QVQLVESGGGLVQAGGSLRLSCAASGRISKRNVMGWYRQAPGKERELVAGITSTGSTSYADSVKGRFTISRDNAKNTVYLQMNSLKPEDTAVYYCAARGQATYNWGQGTQVTVSS | high polyreactivity
20 | QVQLVESGGGLVQAGGSLRLSCAASGSIFSSYAMGWYRQAPGKERELVAGISRRGGSTYYADSVKGRFTISRDNAKNTVYLLMNSLKPEDTAVYYCNARYAGSDLDYWGQGTQVTVSS | high polyreactivity
21 | QVQLVESGGGLVQAGGSLRLICAASGRIFVINAMGWYRQAPGKERELVAAITGGGSTNYADSVKGRFTISRDNAKNPVYLQMNSLKPEDTAVYYCAADYRPVRRFYYSRYDDWGQGTQVTVSS | low polyreactivity
22 | QVQLVESGGGLVQAGGSLRLSCAASGLIFDVYAMGWYRQAPGKERELVAVISRGGSTNYADSVKGRFTISRDNANNTVYLQMNSLKPEDTAVYYCAAGLVVSYPQNNYSVSFYARGYWGQGTQVTVSS | high polyreactivity

Row | Sequence | polyreactivity (PSR sort gate)
23 | QVQLVESGGGLLQAGGSLRVSCAASGSIIFFYAMGWYRQAPGKERELVAAISKSPSSTYYADSVKGRFTISRDNAKNTVYLQMNSLKPEDTAVYYCNTGYSGIQYYYWGQGTQVTVSS | low polyreactivity
24 | QVQLVESGGGLVQAGGSLRLSCAASGRISRGYAMGWYRQAPGKERELVAAIDSDGDTNYADSVKGRFTISRDNAKNTVYLQMNRLKAEDTAVYYCNKDGAYKTAYKRWTLYDYWGQGTQVTVSS | low polyreactivity
25 | QVQLVESGGGLVQAGGSLRLSCAASGSTFTTNAMGWYRQAPGKEREFVAAITRSSGSTYYADSVKGRFTISRDNAKNTVYLQMNSLKPEDTAVYYCAAAYRQNPSQSKSRFGYWGQGTQVTVSS | high polyreactivity
26 | QVQLVESGGGLVQAGGSLRLSCAASGSILRYYAMGWYRQAPGKERELVADISTSGGSTYYADSVKGRFTISRDNAKNTFDLQMISLKPEDTAVYYCASAYYRYLIYIGKFDYWGQGTQVTVSS | high polyreactivity
27 | QVQLVESGGGLVLAGGSLRLSCAASGFTFRKNAMGWYRQARGKERELVAAINSSGGSTYYADSVKGRFTISRDNAKNTVYLQMNSLKPEDTAVFYCNAVGRSLARPRGDYWGQGTQVTVSS | high polyreactivity
28 | QVQLVESGGGLVQAGGSLRLSCAASGFIFRGNTMGWYRQAPGKERELVAAISASGGSTYYADSVKGRFTISRDNAKNTVYLQMNSLKPEDTAVYYCNVAVIYRSRTYWYGMDYWGQGTQLTVSS | high polyreactivity
29 | QVQLVESGGGLVQAGGSLRLSCAASGRTFVWNAIGWYRQAPGKERELVDAITSGGSTNYADSVKGRFTISRDNAKNTVYLQMNSLKPEDTAVYYCAADWHYSPRMDYWGQGTLVTVSS | low polyreactivity
30 | QVQLVESGGALVQAGGSLLLSCAASGSIFQPYAMGWYRQAPGKERELVAAITNGGSTYYADSVKGRFTISRDNAKNTVYLQMNSLNPEDTAVYYFAADVQSSHVYDYWGQGTQVTVSS | low polyreactivity
31 | QVQLVESGGGLVQAGGSLRLSCAASGRIFWANAMGWYRQAPGKERELVATISRSGGTTYYADSVKGRFTISRDNAKNTVYLQMNSLKPEATAVYYCAAEDWSLYDYGDRLWYSPYYYWGQGTQVTVSS | high polyreactivity
32 | QVQLVESGGGLVQEGGSLRLSCAASGSTFSFYAMGWYRQAPGKERELVAAIDSGGRTKYADSVKGRFTISRDNAKNTVYLQMNSLKPEDSEVYYCGAVFRGWWLYDYWGKGTQVTVSS | low polyreactivity
33 | QVQLVESGGGLVQAGGSLRLSCAASGLTFVQYTMGWYRQAPGKERELVAVITSASSTNYADSVKGRFTISRDNAKNTVYLQMNSLKPEDTAVYYCNATTYPYYTNSYQYEYWGQGTQVTVSS | low polyreactivity
34 | QVKHVESGGGLVQAGGSLRLTCAASGRTFDRYARGWCRQAPGKDRQLVASISWTGGSPYYADSVKGRFTISRDNAKNTVYLQMNSLKPEVTAVYYCAVRFDYWGQGTQVTVSS | low polyreactivity
35 | QVQLVESGGGLVQAGGSLRLSCAASGSTIDYYAMGWYRQAPGKERELVATISRGGSTNYADSVKGRFTISRDNAKNTVYLQMNSLKPEDTAVYYCAATYARYFYKYYYWGQGTQVTVSS | high polyreactivity
36 | QVQLVESGGGLVQAGGSLRLSCAASGRIFPYYAMGWYRQAPGKERELVAAISQSDGSTYYADSVKGRFTISRDNEKNTVYLQMNSLKPEVTAVYYWAKRQASYTQHRKGRGDYWGQGTQVTVSS | low polyreactivity
37 | QVQLVESGGGLVQAGGSLRLSCAASGFTFFSNAMGWYRQAPGKERELVAAITSSGGSTYADSVKGRFTISRDNAKNTVYLQMNSLKPEDTAVYYCAADALAPPGGFKEYDYWGQGTQVTVSS | low polyreactivity
38 | QVQLVESGGGLVHPGGSLRLSCAASGSTFGCNAMGWYRQAPGKERELVSAITFSGGTTYYADSVKGRFTISRDNAKNTVYLQMNSLKPEDTAVYYCNAEWWYQYTGPFAPRGEDYLGQGTQVTVSS | low polyreactivity
39 | QVQLVESGGGLVQAGGSLRLICAASGSIFLFNAMGWYRQAPGKERQLVAAISKSGGSTHYADSVKGRFTISRDNAKNTVYLQMNSLKPEDSAVYYCAARVGDLGSQKTDSVYRVYYWGQGTQVTVSS | low polyreactivity
40 | QVQLVESGGGLVQAGGSLRLSCAASGGTLRYYVMGWYRQAPGKERELVAAISWSGDSTYYADSVKGRFTISRDNAKNTVYLEMNSLKPDDTAVYYCAATYYVTYYYGQANHGYDYWGPGTQVTVSS | low polyreactivity
41 | QVQLVESGGGLVQAGGSLSLSCAASGNIVPSYVMGWYRQAPGKERELVAAITWNGGSTYYADSVKGRFTISRDNAKNTVYLQMNSLKPEDTAVYDCATSGPRLLRYYSSSSPSYDYWGQGTQVTVSS | low polyreactivity
42 | QVQLVESGGGLVQAGGSLRLSCAASGSTFKRYAMGWYRQAPGKERELVAAITNGDRTNYADSVKGRFTISRDNAKKTVYLQMNSLKPEDTAVYYCAAAYSRYTSRFYYWGQGTQVTVSS | high polyreactivity
43 | QVQLVESGGGLVQAGGTLRLSCAASGRTFLWNDMGWDRQAPGQERELVAAITGSDGTYADSVKGRFTISRDNAKNTVYLQMNSLKPEDNAVYYCAAETYWFFPWKYDYWGQGTQVTVSS | low polyreactivity
